The target of assay [1] is T1, human FcγRIIb expressed on the cell surface (human, UniProt P31994 43-310).
T1 sequence (looked up): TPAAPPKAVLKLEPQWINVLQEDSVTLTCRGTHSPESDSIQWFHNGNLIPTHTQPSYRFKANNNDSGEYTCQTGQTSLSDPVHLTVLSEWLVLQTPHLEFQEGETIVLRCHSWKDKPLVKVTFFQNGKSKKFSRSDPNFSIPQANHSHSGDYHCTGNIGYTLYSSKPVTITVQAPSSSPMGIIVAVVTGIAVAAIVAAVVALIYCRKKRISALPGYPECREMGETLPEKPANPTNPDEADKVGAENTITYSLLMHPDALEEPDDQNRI
As to the kind of experiment: cell-based or functional assay.

Assay [2] has as its target T2, recombinant soluble FcγRIIb (human, UniProt P31994 43-217).
T2 construct: extracellular domain; also called rsFcγRIIb
T2 sequence (looked up): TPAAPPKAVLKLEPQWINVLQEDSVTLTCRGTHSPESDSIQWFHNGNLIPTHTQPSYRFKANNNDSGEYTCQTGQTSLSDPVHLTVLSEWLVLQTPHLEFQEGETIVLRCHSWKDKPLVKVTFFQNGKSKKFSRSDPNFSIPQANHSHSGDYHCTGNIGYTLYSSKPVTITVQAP
In words: BLI (Octet); anti-TNP IgG captured on TNP-BSA-biotin, rsFcγR in solution; global 1:1 Langmuir fit. The procedure:
(§1) Affinity measurements of IgG:FcR interaction using Bio-Layer Interferometry (OCTET) TNP-BSA was reacted with the EZ-Link™ biotinylation reagent (ThermoFisher Scientific) according to the manufacturer's instructions. The resulting TNP-BSA-biotin (5 μg/ml, 30 sec) was captured to ˜0.8 nm on streptavidin BLI probes using an Octet Red96 (ForteBio; Molecular Devices LLC, San Jose, CA, United States of America) then loaded with anti-TNP IgG (4 μg/ml, 75 sec). A baseline was established (60 sec) followed by the association and dissociation (90s) of a concentration series (15 nM to 20 μM) of rsFcγRIIa-R131 or rsFcγRIIb. Regeneration after each initial reaction TNP-BSA-biotin capture and the subsequent binding cycles used 10 mM HCl.

The target of assay [3] is T3, human FcγRIIIa-F158 expressed on the cell surface (human, UniProt P08637 17-254).
T3 construct: whole, on cells; Co-expressed with the FcR common γ chain (FcRγ-EGFP)
T3 sequence (P08637 17-254): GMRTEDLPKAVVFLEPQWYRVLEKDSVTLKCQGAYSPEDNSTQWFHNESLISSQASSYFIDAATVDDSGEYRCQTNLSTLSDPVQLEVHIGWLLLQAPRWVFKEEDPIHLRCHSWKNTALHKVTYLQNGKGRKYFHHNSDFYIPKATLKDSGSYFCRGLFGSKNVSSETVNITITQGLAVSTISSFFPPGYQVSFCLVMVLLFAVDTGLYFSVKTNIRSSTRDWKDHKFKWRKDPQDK
In words: flow cytometry; immune complexes on IIA1.6 cells expressing the FcγR. The procedure: (§2) Antibody FcγR binding was measured using either immune complexes or monomeric IgG. Immune complexes were generated by incubating the anti-TNP antibodies (parental or mutant anti-TNP IgG) with TNP-BSA at a 2:1 ratio (40 μg/ml:20 μg/ml) for 30 minutes at 37° C. then 10 minutes at 4° C. […] The cells were washed twice, resuspended in […] PBS/0.5% BSA and 10,000 viable cells analysed in at least three experiments. Monomer IgG binding (MFI) were fitted to a single binding site model to determine binding affinity (KA). Similarly immune complex binding is reported as apparent affinity (K app).
(In general: Flow cytometry measures light scatter and fluorescence of single cells or particles in a stream.)

For assay [4], the target named is T4, human FcγRIIIa-V158 expressed on the cell surface (human, UniProt P08637 17-254).
T4 construct: whole, on cells; Co-expressed with the FcR common γ chain (FcRγ-EGFP)
T4 sequence (P08637 17-254 F176V): as the sequence (P08637 17-254) above, with F160V counted along it
The assay is described as above. The procedure:
as §2

Assay [5] has as its target T1, human FcγRIIb expressed on the cell …. In words: flow cytometry; monomeric IgG on IIA1.6 cells expressing FcγRIIb, single site fit of MFI. The procedure: as §2
In an attempt to further improve FcγRIIb specificity, two residues in CH2 of the Fc domain were additionally modified (see Table 1). Particularly, two mutations S267E and L328F (SELF) which have been used in the IgG1 backbone (Chu S Y et al., Mol Immunol 45(15):3926-3933, 2008) were introduced into the IgG2- and IgG4-based mAbs, IgG2-FLGG, IgG2-FEGG and IgG4-FEGG, as well as the parental IgG4 antibody. The antibodies were then tested for specificity (see FIGS. 4-6) and inhibitory potency in allergen specific (FIG. 3) and anti-IgE BAT (FIG. 7). Several effects were apparent.

In assay [6] the target is T5, recombinant soluble FcγRIIa-Arg131 (human, UniProt P12318 34-217).
T5 construct: extracellular domain; Arg131 allelic form; also called rsFcγRIIa-R131
T5 sequence (looked up): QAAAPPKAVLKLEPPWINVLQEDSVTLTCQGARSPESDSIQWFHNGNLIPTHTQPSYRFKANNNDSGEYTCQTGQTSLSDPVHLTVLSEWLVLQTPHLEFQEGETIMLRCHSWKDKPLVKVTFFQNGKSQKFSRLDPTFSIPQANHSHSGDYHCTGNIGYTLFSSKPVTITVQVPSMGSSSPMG
In words: BLI (Octet); anti-TNP IgG captured on TNP-BSA-biotin, rsFcγR in solution; global 1:1 Langmuir fit. The procedure:
as §1
(In general: Biolayer interferometry detects binding as a change in optical thickness at a sensor tip.)

For assay [7], the target named is T6, human FcγRI expressed on the cell surface (human, UniProt P12314 16-374).
T6 construct: whole, on cells; Co-expressed with the FcR common γ chain
T6 sequence (P12314 16-374): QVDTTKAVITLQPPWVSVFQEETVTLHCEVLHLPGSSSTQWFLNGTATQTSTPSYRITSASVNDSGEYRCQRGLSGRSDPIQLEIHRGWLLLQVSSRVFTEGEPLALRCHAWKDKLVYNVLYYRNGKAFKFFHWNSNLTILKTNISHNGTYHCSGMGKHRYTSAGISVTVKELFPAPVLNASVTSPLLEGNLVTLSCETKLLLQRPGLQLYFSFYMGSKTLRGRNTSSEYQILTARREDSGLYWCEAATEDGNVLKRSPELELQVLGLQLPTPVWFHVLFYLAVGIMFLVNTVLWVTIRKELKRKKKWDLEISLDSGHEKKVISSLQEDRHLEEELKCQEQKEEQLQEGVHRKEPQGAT
In words: flow cytometry; monomeric IgG on IIA1.6 cells expressing FcγRI. The procedure:
as §2

B1: chimeric anti-TNP human IgG2-FLGG (antibody)
heavy: EVQLQESGPSLVKPSQTLSLTCSVTGDSITSGYWNWIRQVPGNKLEYMGFINYSGNTYYNPSLRSRISITRDTSKNQYFLHLNSVTTEDTATYYCARANWDVFAYWGQGTLVTVSAASTKGPSVFPLAPCSRSTSESTAALGCLVKDYFPEPVTVSWNSGALTSGVHTFPAVLQSSGLYSLSSVVTVPSSNFGTQTYTCNVDHKPSNTKVDKTVERKCCVECPPCPAPEFLGGPSVFLFPPKPKDTLMISRTPEVTCVVVDVSHEDPEVQFNWYVDGVEVHNAKTKPREEQFNSTFRVVSVLTVVHQDWLNGKEYKCKVSNKGLPAPIEKTISKTKGQPREPQVYTLPPSREEMTKNQVSLTCLVKGFYPSDIAVEWESNGQPENNYKTTPPMLDSDGSFFLYSKLTVDKSRWQQGNVFSCSVMHEALHNHYTQKSLSLSLGK
light: not shown
notes: The entry includes a leader; the C-terminal LGK may differ
As for B1, in assay [1], the “% inhibition of Api m 1 induced basophil activation (washed blood BAT)” value was found to be 85% and the “IC50 of inhibition of basophil activation (whole blood BAT)” value (from here on “IC50 of inhibition … (whole blood BAT)”) is 1.6 µg/mL. For the same molecule, in assay [2], the Ka stood at 830000 M⁻¹.

B2: Anti-TNP mAb formatted as IgG2-FLGG-SELF mutant (antibody)
heavy: EVQLQESGPSLVKPSQTLSLTCSVTGDSITSGYWNWIRQVPGNKLEYMGFINYSGNTYYNPSLRSRISITRDTSKNQYFLHLNSVTTEDTATYYCARANWDVFAYWGQGTLVTVSAASTKGPSVFPLAPCSRSTSESTAALGCLVKDYFPEPVTVSWNSGALTSGVHTFPAVLQSSGLYSLSSVVTVPSSNFGTQTYTCNVDHKPSNTKVDKTVERKCCVECPPCPAPEFLGGPSVFLFPPKPKDTLMISRTPEVTCVVVDVEHEDPEVQFNWYVDGVEVHNAKTKPREEQFNSTFRVVSVLTVVHQDWLNGKEYKCKVSNKGFPAPIEKTISKTKGQPREPQVYTLPPSREEMTKNQVSLTCLVKGFYPSDIAVEWESNGQPENNYKTTPPMLDSDGSFFLYSKLTVDKSRWQQGNVFSCSVMHEALHNHYTQKSLSLSLGK
light: not shown
Consider B2, for which the binding result in assay [3] and in assay [4] was “no binding” throughout. In addition, the “IC50 of inhibition … (whole blood BAT)” value in assay [1] came to 0.24 µg/mL. Besides, the Ka in assay [5] is 8.9e+07 M⁻¹; in assay [2] it was 1.03e+08 M⁻¹; in assay [6], 6.3e+08 M⁻¹.

B3: chimeric anti-TNP human IgG2-LLGG (antibody)
heavy: EVQLQESGPSLVKPSQTLSLTCSVTGDSITSGYWNWIRQVPGNKLEYMGFINYSGNTYYNPSLRSRISITRDTSKNQYFLHLNSVTTEDTATYYCARANWDVFAYWGQGTLVTVSAASTKGPSVFPLAPCSRSTSESTAALGCLVKDYFPEPVTVSWNSGALTSGVHTFPAVLQSSGLYSLSSVVTVPSSNFGTQTYTCNVDHKPSNTKVDKTVERKCCVECPPCPAPELLGGPSVFLFPPKPKDTLMISRTPEVTCVVVDVSHEDPEVQFNWYVDGVEVHNAKTKPREEQFNSTFRVVSVLTVVHQDWLNGKEYKCKVSNKGLPAPIEKTISKTKGQPREPQVYTLPPSREEMTKNQVSLTCLVKGFYPSDIAVEWESNGQPENNYKTTPPMLDSDGSFFLYSKLTVDKSRWQQGNVFSCSVMHEALHNHYTQKSLSLSLGK
light: not shown
notes: The entry includes a leader
With B3, in assay [1], the “% inhibition of Api m 1 induced basophil activation (washed blood BAT)” value stood at 81%. In addition, the Ka in assay [2] is 800000 M⁻¹.

B4: Anti-TNP mAb formatted as IgG2-FEGG-SELF mutant (antibody)
heavy: EVQLQESGPSLVKPSQTLSLTCSVTGDSITSGYWNWIRQVPGNKLEYMGFINYSGNTYYNPSLRSRISITRDTSKNQYFLHLNSVTTEDTATYYCARANWDVFAYWGQGTLVTVSAASTKGPSVFPLAPCSRSTSESTAALGCLVKDYFPEPVTVSWNSGALTSGVHTFPAVLQSSGLYSLSSVVTVPSSNFGTQTYTCNVDHKPSNTKVDKTVERKCCVECPPCPAPEFEGGPSVFLFPPKPKDTLMISRTPEVTCVVVDVEHEDPEVQFNWYVDGVEVHNAKTKPREEQFNSTFRVVSVLTVVHQDWLNGKEYKCKVSNKGFPAPIEKTISKTKGQPREPQVYTLPPSREEMTKNQVSLTCLVKGFYPSDIAVEWESNGQPENNYKTTPPMLDSDGSFFLYSKLTVDKSRWQQGNVFSCSVMHEALHNHYTQKSLSLSLGK
light: not shown
As for B4, in assay [1], the “IC50 of inhibition … (whole blood BAT)” value was found to be 0.38 µg/mL. For the same molecule, the Ka is 3.2e+07 M⁻¹ in assay [5], 2.9e+07 M⁻¹ in assay [2] and 1.88e+08 M⁻¹ in assay [6]. The binding result in assay [7] is reported as “no binding”.

B5: anti-TNP IgG2-SELF (antibody)
heavy: EVQLQESGPSLVKPSQTLSLTCSVTGDSITSGYWNWIRQVPGNKLEYMGFINYSGNTYYNPSLRSRISITRDTSKNQYFLHLNSVTTEDTATYYCARANWDVFAYWGQGTLVTVSAASTKGPSVFPLAPCSRSTSESTAALGCLVKDYFPEPVTVSWNSGALTSGVHTFPAVLQSSGLYSLSSVVTVPSSNFGTQTYTCNVDHKPSNTKVDKTVERKCCVECPPCPAPPVAGPSVFLFPPKPKDTLMISRTPEVTCVVVDVEHEDPEVQFNWYVDGVEVHNAKTKPREEQFNSTFRVVSVLTVVHQDWLNGKEYKCKVSNKGFPAPIEKTISKTKGQPREPQVYTLPPSREEMTKNQVSLTCLVKGFYPSDIAVEWESNGQPENNYKTTPPMLDSDGSFFLYSKLTVDKSRWQQGNVFSCSVMHEALHNHYTQKSLSLSLGK
light: not shown
For the molecule B5, the Ka is 3.4e+07 M⁻¹ in assay [2] and 9.1e+07 M⁻¹ in assay [6].

B6: chimeric anti-TNP human IgG4-SELF (antibody)
heavy: EVQLQESGPSLVKPSQTLSLTCSVTGDSITSGYWNWIRQVPGNKLEYMGFINYSGNTYYNPSLRSRISITRDTSKNQYFLHLNSVTTEDTATYYCARANWDVFAYWGQGTLVTVSAASTKGPSVFPLAPCSRSTSESTAALGCLVKDYFPEPVTVSWNSGALTSGVHTFPAVLQSSGLYSLSSVVTVPSSSLGTKTYTCNVDHKPSNTKVDKRVESKYGPPCPSCPAPEFLGGPSVFLFPPKPKDTLMISRTPEVTCVVVDVEQEDPEVQFNWYVDGVEVHNAKTKPREEQFNSTYRVVSVLTVLHQDWLNGKEYKCKVSNKGFPSSIEKTISKAKGQPREPQVYTLPPSQEEMTKNQVSLTCLVKGFYPSDIAVEWESNGQPENNYKTTPPVLDSDGSFFLYSRLTVDKSRWQEGNVFSCSVMHEALHNHYTQKSLSLSLGK
light: not shown
As to B6, in assay [1], the “IC50 of inhibition … (whole blood BAT)” value is 1.1 µg/mL.

(Values after patent US20240018269A1 (MACFARLANE BURNET INSTITUTE FOR MEDICAL RESEARCH AND PUBLIC …, published 2024).)
